In PMC9976466, “Insights into the structure-function relationship of the NorQ/NorD chaperones from Paracoccus denitrificans reveal shared principles of interacting MoxR AAA+/VWA domain proteins” (BMC Biology, 2023):
Several values for one entry are separate records, joined by “and”; a condition that tells them apart may be missing. Equal values may be shown once. Blank lines part the entries; values can stand above or below the molecule they belong to.

Assays:
[1] = target: T1, NorQ (Paracoccus denitrificans, UniProt Q51664, E109Q); experiment: Blue Native PAGE, ATP-induced shift to hexamer; assay type: binding; settings: 2 mM ATP, 20 mM MgCl2; Walker B variant, ATPase activity lost
T1 construct: full length, N-terminal 6-His tag (pET-hQ), expressed in E. coli BL21(DE3); ~30 kDa monomer, several oligomeric states up to hexamer

[2] = target: the molecule itself; experiment: native gel or EMSA; BN-PAGE of purified NorQ^WBD (~10 μg per lane) after addition of ATP
[3] = target: 6-His-tagged NorD (Paracoccus denitrificans); experiment: as above
[4] = target: the molecule itself; experiment: native gel or EMSA + SEC; BN-PAGE (NativePAGE 4-16% Bis-Tris, 4 °C) of purified NorQ (14 μg) and NorQ^WB (18 μg), with 2 mM ATP and 20 mM MgCl2 in Fig. 2b; SEC on Superdex 200 in 20 mM TRIS/HCl pH 8, 300 mM NaCl, 10% glycerol

Molecule: Nc1ncnc2c1ncn2[C@@H]1O[C@H](COP(=O)(O)OP(=O)(O)OP(=O)(O)O)[C@@H](O)[C@H]1O [ATP]
Blue Native PAGE, ATP-induced shift to hexamer [1]: clear shifting of the oligomerization state to the hexamer (Fig. 2b) for the NorQ^WB

stoichiometry N [3]: 3
B1: untagged NorQ^WB (E109Q), co-expressed with 6-His-tagged NorD (enzyme, Paracoccus denitrificans, UniProt Q51664 1-270, looked up)
chain: MNAHVKTQGNGAVDAPFYLPQGDEVAVFEAAAANDLPVLLKGPTGCGKTRFVAHMAARLGRPLYTVACHDDLSAADLIGRYLLKGGETVWTDGPLTRAVREGAICYLDQVVEARKDVTVVLHPLTDDRRILPIDRTGEEIEAAPGFMLVASYNPGYQNILKTLKPSTRQRFVAMEFDFPEPAREVEIVARESGLDRDRTLGLVRLAGKIRGLKGQDLEEGVSTRLVVYAASLTRRGMNLDRAIEAAMIEPLTDDAEVKRGLRDLAAAIFG
notes: NorQ of Paracoccus denitrificans, Uniprot Q51663, Walker B variant; the norQ gene was cloned into a pET21a backbone with the T7 RBS; Hexameric within the NorQ^WBD complex (BN-PAGE, cryo-EM); trimer to hexamer after addition of ATP; also called NorQ^WB (in NorQ^WBD; Q^WBD)
stoichiometry N [2]: 3

B2: wildtype 6-His-tagged NorQ (enzyme, Paracoccus denitrificans, UniProt Q51664 1-270, looked up)
chain: MNAHVKTQGNGAVDAPFYLPQGDEVAVFEAAAANDLPVLLKGPTGCGKTRFVAHMAARLGRPLYTVACHDDLSAADLIGRYLLKGGETVWTDGPLTRAVREGAICYLDEVVEARKDVTVVLHPLTDDRRILPIDRTGEEIEAAPGFMLVASYNPGYQNILKTLKPSTRQRFVAMEFDFPEPAREVEIVARESGLDRDRTLGLVRLAGKIRGLKGQDLEEGVSTRLVVYAASLTRRGMNLDRAIEAAMIEPLTDDAEVKRGLRDLAAAIFG
notes: NorQ, MoxR-class AAA+ ATPase of Paracoccus denitrificans, Uniprot Q51663; the norQ gene was cloned into a pET21a backbone; about 30 kDa; Expressed without NorD; Forms several oligomeric states from monomer to hexamer; source: dialysis
stoichiometry N [4]: 6 and 3 and 4 and 5
